Reference: PMC7968930, “A conserved cell division protein directly regulates FtsZ dynamics in filamentous and unicellular actinobacteria” (eLife, 2021)

Experiments:
[1] = test system: T1, SepH (Streptomyces venezuelae NRRL B-65442), ORF:b45d4985; assay: DNase I footprinting; settings: 50 mM HEPES/KOH pH 7.2, 50 mM KCl, 5 mM MgCl2, room temperature, 30 min (EMSA 50 ng probe in 20 uL, 0.5x TBE gel; footprinting 40 uL)
T1 sequence: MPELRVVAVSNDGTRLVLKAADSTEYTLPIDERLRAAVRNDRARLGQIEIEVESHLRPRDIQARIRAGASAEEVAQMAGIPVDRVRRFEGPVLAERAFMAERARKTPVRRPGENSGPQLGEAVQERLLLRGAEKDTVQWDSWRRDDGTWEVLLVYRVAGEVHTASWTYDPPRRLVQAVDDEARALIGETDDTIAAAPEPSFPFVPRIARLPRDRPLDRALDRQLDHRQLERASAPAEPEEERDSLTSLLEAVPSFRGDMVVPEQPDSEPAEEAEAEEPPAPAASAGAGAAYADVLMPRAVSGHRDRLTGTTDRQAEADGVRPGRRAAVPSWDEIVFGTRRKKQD

[2] = test system: T1, SepH (Streptomyces venezuelae NRRL B-65442), ORF:b45d4985; assay: EMSA; settings: 50 mM HEPES/KOH pH 7.2, 50 mM KCl, 5 mM MgCl2, room temperature, 30 min (EMSA 50 ng probe in 20 uL, 0.5x TBE gel; footprinting 40 uL)
[3] = biological target: FtsZ (S. venezuelae), purified, untagged (Streptomyces venezuelae); assay: co-sedimentation; high speed (350,000 x g, 15 min); 3.5 µM FtsZ, with or without 0.6 µM SepH, 1 mM GMPCCP, buffer P, 30°C
[4] = biological target: FtsZ (S. venezuelae), purified, untagged (Streptomyces venezuelae); assay: co-sedimentation; high speed (350,000 x g, 15 min); 3.5 µM FtsZ, 0.6 µM SepH or SepH-G79P, with or without 2 mM GTP, buffer P, 30°C; SDS-PAGE, Coomassie, bands quantified
[5] = biological target: SepH (S. venezuelae), purified, untagged (Streptomyces venezuelae); assay: SEC; 30 µM protein, Superose 12 10/300 GL, buffer P (50 mM HEPES pH 7.2, 50 mM KCl, 5 mM MgCl2); size predicted from MW standards
[6] = biological target: FtsZ (S. venezuelae), purified, untagged (Streptomyces venezuelae)
[7] = biological target: SepH-CTD (residues 187-344 of S. venezuelae SepH), purified, untagged (Streptomyces venezuelae); assay: SEC; 30 µM protein, Superose 12 10/300 GL, buffer P (50 mM HEPES pH 7.2, 50 mM KCl, 5 mM MgCl2); size predicted from MW standards
[8] = biological target: SepH-G79P (S. venezuelae), purified, untagged (Streptomyces venezuelae); assay: as above
[9] = biological target: SepH-NTD (residues 1-186 of S. venezuelae SepH), purified, untagged (Streptomyces venezuelae); assay: as above
[10] = biological target: the molecule itself; assay: SEC; SepHMs, Superose 12 10/300 GL, modified buffer P (50 mM HEPES pH 6.8, 100 mM KCl, 5 mM MgCl2); size predicted from MW standards

Molecule: CCTTCGATCGTCCCTGGTCGGAGCGGCCGGTCGATGATCGAATCGGCGGCTCGGGATGATCACTGCCCGAGTGGGATGCCACCATGCCGACCCATGCGGCGGCTCACTCGAACGGGTCGAACGCGCCGGGGTGCGCGCCCCTCAGGCGCCGTGGGCGCGCCTCTCAGCGGAGAGGACGTGTTCCCCGGGAACGACAAAGCCCCGGTTGGACGGGGGATTCCAACCGGGGCCGATCGCCGTGACGCGAAGGGC (double strand) [vnz_35870 promoter region probe]
- binding [1]: no binding
- binding [2]: no binding

Molecule: FtsZ (S. venezuelae), purified, untagged (natural protein)
- percent of FtsZ in the pellet (with GMPCCP) [3]: 88%
- percent of FtsZ in the pellet (with GTP and SepH) [4]: 47%
- percent of FtsZ in the pellet (with GTP and SepH-G79P) [4]: 36%
- percent of FtsZ in the pellet (with GTP) [4]: 35%

Molecule: GCGGTCGTCGCCGCGGGCGGAGCCGATGCCCATCAGGGCCGAACCGGCCTCGGACATGACCGACTTGACGTCGGCGAAGTCGAGGTTGATCAGGCCCGGGGTGGTGATGAGGTCGGTGATGCCCTGCACACCGCTCAGCAGCACCTGGTCGGCCGACTTGAAGGCGTCGAGCACGGAGACCTGGCGGTCCGAGATCGACAGGAGCCGGTCGTTGGGGATGACGATGAGGGTGTCGACCTCTTCGCGGAGCTCGGCGATGCC (double strand) [vnz_08520 (ftsZ) internal probe]
- binding [2]: no binding

Molecule: GCTGCTCGTCCCCGCGCAGGCGGAACCCGACGACGTCGTCCTGTCCTGGGAGGGGGAGGACGTGCTCGCCGTACGGCTGCCGCAGCTGTCCGAATCCCTCGATCACATCCTGGCGGCGATGGAGCGGCGGCACGGGATGCCACTGGCCGAGCTGGACCGCAAGGCCAAGCAGGAGGCCGTCCGTCTGCTGGAGGCGCGCGGCGCCTTCGCCGTACGCCATGGAGTGGAGACGGTGGCGGGTGCACTCGGTGTCAGCCGC (double strand) [vnz_30075 promoter region probe]
- binding [1]: no binding

Molecule: SepH (S. venezuelae), purified, untagged (natural protein)
- percent of SepH in the pellet (with FtsZ and GMPCCP) [3]: 98%
- stoichiometry N [5]: 4
- percent of SepH in the pellet (with FtsZ and GTP) [4]: 96%
- critical concentration of FtsZ from the GTPase rate, with 0.6 µM SepH (1.43 µM without SepH) [6]: 1.11 µM

Molecule: SepH-CTD (residues 187-344 of S. venezuelae SepH), purified, untagged (domain or fragment)
- stoichiometry N [7]: 4

Molecule: SepH-G79P (S. venezuelae), purified, untagged (natural protein)
- stoichiometry N [8]: 4
- percent of SepH-G79P in the pellet (with FtsZ and GTP) [4]: 50%

Molecule: SepH-NTD (residues 1-186 of S. venezuelae SepH), purified, untagged (domain or fragment)
- stoichiometry N [9]: 2

B1: SepHMs-6xHis (SepH from M. smegmatis), purified (natural protein, Mycobacterium smegmatis mc2 155, UniProt A0R430 1-276, looked up)
chain: MRELRVVGLDVDGKRIICETADSAEMFTLRVDDRLRAALRGDKVASNQTEIDLEVQSVLRPKEIQAKIRAGASVEQLAAAAGVPVERVERFAHPVLLERARAAELATAAHPVLADGPSVLTLLETVTKALVARGLDPDAVAWDAWRNEDSRWTVQLAWKAGRSDNVAHFRFTPGSHGGLVTASDDAAHQLINPDFARPLRPVAAVPQLEFEAPQPAQPAAPPQPAQAVPTPEPAPAPEQEPEPAPAPAPKRSRKARATVPAWEDVLLGVRSSGTQR
notes: SepH homolog of Mycobacterium smegmatis mc2 155, MSMEG_5685, in pET21b (pSS561); Tetramer predicted from size exclusion chromatography; also called SepHMs-His6; SepH-6xHis; source: E. coli Rossetta (DE3), purified (HisTrap); not shown: His6, C-terminal, kept
- stoichiometry N [10]: 4
